Our source for the Kd values is article PMC7928716 (Science Signaling, 2021).

Where two headings read alike, the source gives them in different places. Square brackets hold non-standard residues; d marks the D form. * marks the point of attachment. FITC = O=C1OC2(c3ccc(O)cc3Oc3cc(O)ccc32)c2ccc(NC(=S)*)cc21; pY = N[C@@H](Cc1ccc(OP(=O)(O)O)cc1)C(=O)O; pS = N[C@@H](COP(=O)(O)O)C(=O)O

First the molecules themselves.
T1: FRS2 PTB (8–136) (human, UniProt Q8WU20 8-136)
T1 sequence: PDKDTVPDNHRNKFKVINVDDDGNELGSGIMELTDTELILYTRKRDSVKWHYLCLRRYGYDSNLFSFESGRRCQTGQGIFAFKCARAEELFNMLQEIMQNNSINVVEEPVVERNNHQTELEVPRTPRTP

T2: IRS1 PTB (157–267) (human, UniProt P35568 157-267)
T2 sequence: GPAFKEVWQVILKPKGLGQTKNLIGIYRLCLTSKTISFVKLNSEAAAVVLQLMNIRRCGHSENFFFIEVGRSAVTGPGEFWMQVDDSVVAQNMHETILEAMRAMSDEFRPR

T3: DOK1 PTB (151–256) (human, UniProt Q99704 151-256)
T3 sequence: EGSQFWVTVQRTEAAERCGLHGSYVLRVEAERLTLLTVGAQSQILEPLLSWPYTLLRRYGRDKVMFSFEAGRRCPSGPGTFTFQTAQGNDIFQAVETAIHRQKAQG

T4: SNTA1 PDZ (84–171) (human, UniProt Q13424 84-171)
T4 sequence: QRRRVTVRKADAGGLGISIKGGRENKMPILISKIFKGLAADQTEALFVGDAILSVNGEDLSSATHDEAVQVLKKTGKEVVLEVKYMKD

T5: TAX1BP3 PDZ (7–124) (human, UniProt O14907 7-124)
T5 sequence: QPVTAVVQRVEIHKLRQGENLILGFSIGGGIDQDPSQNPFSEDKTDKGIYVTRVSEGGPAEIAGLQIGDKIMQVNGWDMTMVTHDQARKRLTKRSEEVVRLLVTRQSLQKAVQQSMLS

T6: AP2 μ2 (160–435) (human, UniProt Q96CW1 160-435)
T6 sequence: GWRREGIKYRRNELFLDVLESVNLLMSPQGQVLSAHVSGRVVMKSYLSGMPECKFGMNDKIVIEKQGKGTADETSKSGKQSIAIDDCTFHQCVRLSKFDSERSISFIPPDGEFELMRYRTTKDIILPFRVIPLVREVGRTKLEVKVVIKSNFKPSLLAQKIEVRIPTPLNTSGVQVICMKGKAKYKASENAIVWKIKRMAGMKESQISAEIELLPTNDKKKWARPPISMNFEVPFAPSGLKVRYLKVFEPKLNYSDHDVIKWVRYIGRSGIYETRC

B1: TLN1 PTB (442–770) (domain or fragment)
chain: GVSFFLVKEKMKGKNKLVPRLLGITKECVMRVDEKTKEVIQEWNLTNIKRWAASPKSFTLDFGDYQDGYYSVQTTEGEQIAQLIAGYIDIILK
B2: FITC-labeled ACE2(775–790) peptide, unphosphorylated (peptide)
peptide: {FITC}-RSGENPYASIDISKGE-NH2
B3: FITC-labeled ACE2(787–798) peptide (peptide)
peptide: {FITC}-SKGENNPGFQNT-NH2
B4: FITC-labeled ACE2(775–790) peptide, pTyr781 (peptide)
peptide: {FITC}-RSGENP[pY]ASIDISKGE-NH2
B5: NHERF3 PDZ2 (132–224) (domain or fragment)
chain: QPRLCYLVKEGGSYGFSLKTVQGKKGVYMTDITPQGVAMRAGVLADDHLIEVNGENVEDASHEEVVEKVKKSGSRVMFLLVDKETDKRHVEQK
B6: FITC-labeled C-terminal peptide of ACE2(796–805) (peptide)
peptide: {FITC}-QNTDDVQTSF-OH
B7: FITC-labeled ACE2(775–790) peptide, pSer783 (peptide)
peptide: {FITC}-RSGENPYA[pS]IDISKGE-NH2
B8: Mouse SNX17 FERM (109–388) (domain or fragment)
chain: TQQVPTEEVSLEVLLSNGQKVLVTVLTSDQTEDVLEAVAAKLDLPDDLIGYFSLFLVREKEDGAFSFVRKLQEFELPYVSVTSLRSQEYKIVLRKSYWDSAYDDDVMENRVGLNLLYAQTVSDIEHGWILVTKEQHRQLKSLQEKVSKKEFLRLAQTLRHYGYLRFDACVADFPEKDCPVVVSAGNSELSLQLRLPGQQLREGSFRVTRMRCWRVTSSVPLPSGGTSSPSRGRGEVRLELAFEYLMSKDRLQWVTITSPQAIMMSICLQSMVDELMVKKS
B9: FITC-labeled ATG9A(4–14) probe peptide (peptide)
peptide: {FITC}-FDTEYQRLEAS-NH2
B10: FITC-labeled SQSTM1(335–344) probe peptide (peptide)
peptide: {FITC}-DDDWTHLSSK-NH2

Some targets named below: LYN SH2 (106–213) (human, UniProt P07948 106-213); TLN2 PTB (309–401) (human, UniProt Q9Y4G6 309-401); MAGI1 PDZ1 (1–106) (human, UniProt Q96QZ7 1-106); SCRIB PDZ1 (718–814) (human, UniProt Q14160 718-814); MAP1LC3C ATG8 (2–125) (human, UniProt Q9BXW4 2-125).
Common to all, as to experiment: fluorescence polarisation
Assay [1] concerns the target B3.
For assay [2], the target named is T7, MAP1LC3B ATG8 (2–119) (human, UniProt Q9GZQ8 2-119).
The target of assay [3] is T8, […]2 ATG8 (2–115) (human, UniProt P60520 2-115).
T8 sequence (P60520 2-115): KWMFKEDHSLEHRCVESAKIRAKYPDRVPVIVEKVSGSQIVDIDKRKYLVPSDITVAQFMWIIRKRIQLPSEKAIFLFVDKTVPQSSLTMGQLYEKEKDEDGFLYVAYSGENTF
In the next assay the target is T1, FRS2 PTB (8–136).
The next assay deals with T2, IRS1 PTB (157–267).
A further assay has as its target T3, DOK1 PTB (151–256).
Assay [4] concerns the target B6.
For the next assay, the target named is T4, SNTA1 PDZ (84–171).
In another assay the target is T5, TAX1BP3 PDZ (7–124).
The next assay concerns the target T6, AP2 μ2 (160–435).
Assay [5] concerns the target T7, MAP1LC3B ATG8 (2–119). The source holds these as a separate data set.
The target in assay [6] is T8, […]2 ATG8 (2–115). This is another data set of the same source.

Chain of TLN2 PTB (309–401) (Q9Y4G6 309-401): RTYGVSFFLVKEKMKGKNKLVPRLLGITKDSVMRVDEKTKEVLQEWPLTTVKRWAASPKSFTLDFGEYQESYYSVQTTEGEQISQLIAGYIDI
Chain of MAGI1 PDZ1 (1–106) (Q96QZ7 1-106): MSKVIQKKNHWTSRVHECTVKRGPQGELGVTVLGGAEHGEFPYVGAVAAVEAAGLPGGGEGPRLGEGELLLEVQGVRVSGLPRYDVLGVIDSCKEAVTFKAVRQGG
Chain of MAP1LC3C ATG8 (2–125) (Q9BXW4 2-125): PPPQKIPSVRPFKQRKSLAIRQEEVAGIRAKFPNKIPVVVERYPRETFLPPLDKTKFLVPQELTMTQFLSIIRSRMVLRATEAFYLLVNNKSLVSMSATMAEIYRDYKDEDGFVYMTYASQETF
Chain of SCRIB PDZ1 (718–814) (Q14160 718-814): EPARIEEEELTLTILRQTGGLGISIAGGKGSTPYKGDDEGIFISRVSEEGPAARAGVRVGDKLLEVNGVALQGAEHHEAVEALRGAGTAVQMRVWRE

In general, Kd refers to the equilibrium constant for the complex coming apart. A lower Kd goes with tighter binding. In turn, B1 showed a Kd in [1] of over 100 µM.
With B2, the Kd (with MAP1LC3B ATG8 (2–119) [2]; with LYN SH2 (106–213); in assay […]2 ATG8 (2–115) [3]) was over 100 µM throughout.
Turning to B3, the Kd with FRS2 PTB (8–136), in the assay with IRS1 PTB (157–267), with DOK1 PTB (151–256) and with TLN2 PTB (309–401) was over 100 µM each time.
As to B4, the Kd (with MAP1LC3B ATG8 (2–119) [2]; in assay […]2 ATG8 (2–115) [3]) was over 100 µM in each case.
As to B5, in assay [4], the Kd is over 100 µM.
In the case of B6, the Kd with MAGI1 PDZ1 (1–106), with SNTA1 PDZ (84–171), with SCRIB PDZ1 (718–814) and in the assay with TAX1BP3 PDZ (7–124) was over 100 µM each time.
Take B7: the Kd (with MAP1LC3B ATG8 (2–119) [2]; with LYN SH2 (106–213); in assay […]2 ATG8 (2–115) [3]) was over 100 µM each time.
B8 showed a Kd in [1] of about 100 µM.
Turning to B9, in the assay with AP2 μ2 (160–435), binding was characterised by a dissociation constant (Kd) of 1.64 µM.
Turning to B10, the Kd with MAP1LC3C ATG8 (2–125) came out at 0.33 µM; with MAP1LC3B ATG8 (2–119) [5] it was 1.9 µM; in […]2 ATG8 (2–115) [6], 11 µM.
